One block for each substance: values may come before it.
Legend:
14-3-3τ = 14-3-3τ (UniProt P27348); assay: cell-based or functional assay
[1] = molecular target: cAMP-dependent protein kinase (PKA), murine catalytic subunit (murine) (UniProt P05132); assay: cell-based or functional assay

14-3-3τ, sequence (P27348 whole entry): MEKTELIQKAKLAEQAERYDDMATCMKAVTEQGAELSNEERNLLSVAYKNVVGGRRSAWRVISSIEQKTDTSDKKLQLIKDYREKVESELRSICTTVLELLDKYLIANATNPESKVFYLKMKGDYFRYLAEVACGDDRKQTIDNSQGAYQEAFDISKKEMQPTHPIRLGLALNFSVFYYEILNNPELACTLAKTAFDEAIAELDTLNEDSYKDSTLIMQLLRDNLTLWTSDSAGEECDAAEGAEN

- % Fluorescence Enhancement on phosphorylation, no quenching dye (14-3-3τ): 40%
- PKA-induced fluorescence change; Alizarin Red 5x (14-3-3τ): 1.36 fold
- PKA-induced fluorescence change; Alizarin Red 10x (14-3-3τ): 1.33 fold
- PKA-induced fluorescence change; Alizarin Red 25x (14-3-3τ): 1.23 fold
- PKA-induced fluorescence change; Alizarin Red 50x (14-3-3τ): 1.07 fold
- PKA-induced fluorescence change; Aniline Blue WS 5x (14-3-3τ): 2.34 fold
- PKA-induced fluorescence change; Aniline Blue WS 10x (14-3-3τ): 4.82 fold
- PKA-induced fluorescence change; Aniline Blue WS 25x (14-3-3τ): 5.58 fold
- PKA-induced fluorescence change; Aniline Blue WS 50x (14-3-3τ): 1.4 fold
- PKA-induced fluorescence change; Chlorazol Black E 5x (14-3-3τ): 4.01 fold
- PKA-induced fluorescence change; Chlorazol Black E 10x (14-3-3τ): 0.93 fold
- PKA-induced fluorescence change; Chlorazol Black E 25x (14-3-3τ): 0.55 fold
- PKA-induced fluorescence change; Chlorazol Black E 50x (14-3-3τ): 0.87 fold
- PKA-induced fluorescence change; Eriochrome Black T 5x (14-3-3τ): 1.32 fold
- PKA-induced fluorescence change; Eriochrome Black T 10x (14-3-3τ): 1.12 fold
- PKA-induced fluorescence change; Eriochrome Black T 25x (14-3-3τ): 0.59 fold
- PKA-induced fluorescence change; Eriochrome Black T 50x (14-3-3τ): 0.59 fold
- PKA-induced fluorescence change; Evans Blue 5x (14-3-3τ): 0.98 fold
- PKA-induced fluorescence change; Evans Blue 10x (14-3-3τ): 0.91 fold
- PKA-induced fluorescence change; Evans Blue 25x (14-3-3τ): 0.89 fold
- PKA-induced fluorescence change; Evans Blue 50x (14-3-3τ): 0.91 fold
- PKA-induced fluorescence change; Ponceau S 5x (14-3-3τ): 2.26 fold
- PKA-induced fluorescence change; Ponceau S 10x (14-3-3τ): 2.63 fold
- PKA-induced fluorescence change; Ponceau S 25x (14-3-3τ): 2.88 fold
- PKA-induced fluorescence change; Ponceau S 50x (14-3-3τ): 2.69 fold
- PKA-induced fluorescence change; Reactive Blue 2 5x (14-3-3τ): 2.16 fold
- PKA-induced fluorescence change; Reactive Blue 2 10x (14-3-3τ): 2.66 fold
- PKA-induced fluorescence change; Reactive Blue 2 25x (14-3-3τ): 3.55 fold
- PKA-induced fluorescence change; Reactive Blue 2 50x (14-3-3τ): 4.27 fold
- PKA-induced fluorescence change; Rose Bengal 5x (14-3-3τ): 6.52 fold
- PKA-induced fluorescence change; Rose Bengal 10x (14-3-3τ): 2.88 fold
- PKA-induced fluorescence change; Rose Bengal 25x (14-3-3τ): 1.1 fold
- PKA-induced fluorescence change; Rose Bengal 50x (14-3-3τ): 0.91 fold
- PKA-induced fluorescence change; Tartrazine 5x (14-3-3τ): 1.28 fold
- PKA-induced fluorescence change; Tartrazine 10x (14-3-3τ): 1.42 fold
- PKA-induced fluorescence change; Tartrazine 25x (14-3-3τ): 1.46 fold
- PKA-induced fluorescence change; Tartrazine 50x (14-3-3τ): 1.47 fold
- PKA-induced fluorescence change; Trypan Blue 5x (14-3-3τ): 3.03 fold
- PKA-induced fluorescence change; Trypan Blue 10x (14-3-3τ): 2.18 fold
- PKA-induced fluorescence change; Trypan Blue 25x (14-3-3τ): 1.72 fold
- PKA-induced fluorescence change; Trypan Blue 50x (14-3-3τ): 2.76 fold
Substance: P4, Ac-GRDap(Pyr)GRRFSYP-amide, serine-phosphorylated by PKA in the assay (peptide)

- IC50 of PKA activity (Deep Quench assay, P2/Ponceau S, 1 mM ATP) [1]: 1100 nM
- IC50 of PKA activity (standard radioactive ATP method) [1]: 1600 nM
Substance: PKI (14-22) peptide

- % Fluorescence Enhancement on phosphorylation, no quenching dye (14-3-3τ): 64%
- PKA-induced fluorescence change; Alizarin Red 5x (14-3-3τ): 1.7 fold
- PKA-induced fluorescence change; Alizarin Red 10x (14-3-3τ): 1.59 fold
- PKA-induced fluorescence change; Alizarin Red 25x (14-3-3τ): 1.49 fold
- PKA-induced fluorescence change; Alizarin Red 50x (14-3-3τ): 1.5 fold
- PKA-induced fluorescence change; Aniline Blue WS 5x (14-3-3τ): 3.02 fold
- PKA-induced fluorescence change; Aniline Blue WS 10x (14-3-3τ): 5.36 fold
- PKA-induced fluorescence change; Aniline Blue WS 25x (14-3-3τ): 6.04 fold
- PKA-induced fluorescence change; Aniline Blue WS 50x (14-3-3τ): 1.23 fold
- PKA-induced fluorescence change; Chlorazol Black E 5x (14-3-3τ): 5.62 fold
- PKA-induced fluorescence change; Chlorazol Black E 10x (14-3-3τ): 1.52 fold
- PKA-induced fluorescence change; Chlorazol Black E 25x (14-3-3τ): 0.21 fold
- PKA-induced fluorescence change; Chlorazol Black E 50x (14-3-3τ): 0.25 fold
- PKA-induced fluorescence change; Eriochrome Black T 5x (14-3-3τ): 1.61 fold
- PKA-induced fluorescence change; Eriochrome Black T 10x (14-3-3τ): 1.73 fold
- PKA-induced fluorescence change; Eriochrome Black T 25x (14-3-3τ): 0.84 fold
- PKA-induced fluorescence change; Eriochrome Black T 50x (14-3-3τ): 1.12 fold
- PKA-induced fluorescence change; Evans Blue 5x (14-3-3τ): 1.33 fold
- PKA-induced fluorescence change; Evans Blue 10x (14-3-3τ): 0.92 fold
- PKA-induced fluorescence change; Evans Blue 25x (14-3-3τ): 0.84 fold
- PKA-induced fluorescence change; Evans Blue 50x (14-3-3τ): 0.78 fold
- PKA-induced fluorescence change; Ponceau S 5x (14-3-3τ): 2.85 fold
- PKA-induced fluorescence change; Ponceau S 10x (14-3-3τ): 3.3 fold
- PKA-induced fluorescence change; Ponceau S 25x (14-3-3τ): 3.23 fold
- PKA-induced fluorescence change; Ponceau S 50x (14-3-3τ): 4.36 fold
- PKA-induced fluorescence change; Reactive Blue 2 5x (14-3-3τ): 2.28 fold
- PKA-induced fluorescence change; Reactive Blue 2 10x (14-3-3τ): 3.99 fold
- PKA-induced fluorescence change; Reactive Blue 2 25x (14-3-3τ): 6.44 fold
- PKA-induced fluorescence change; Reactive Blue 2 50x (14-3-3τ): 5.79 fold
- PKA-induced fluorescence change; Rose Bengal 5x (14-3-3τ): 8.36 fold
- PKA-induced fluorescence change; Rose Bengal 10x (14-3-3τ): 3.45 fold
- PKA-induced fluorescence change; Rose Bengal 25x (14-3-3τ): 1.02 fold
- PKA-induced fluorescence change; Rose Bengal 50x (14-3-3τ): 0.95 fold
- PKA-induced fluorescence change; Tartrazine 5x (14-3-3τ): 1.43 fold
- PKA-induced fluorescence change; Tartrazine 10x (14-3-3τ): 1.52 fold
- PKA-induced fluorescence change; Tartrazine 25x (14-3-3τ): 1.79 fold
- PKA-induced fluorescence change; Tartrazine 50x (14-3-3τ): 2.05 fold
- PKA-induced fluorescence change; Trypan Blue 5x (14-3-3τ): 6.21 fold
- PKA-induced fluorescence change; Trypan Blue 10x (14-3-3τ): 2.72 fold
- PKA-induced fluorescence change; Trypan Blue 25x (14-3-3τ): 3.61 fold
- PKA-induced fluorescence change; Trypan Blue 50x (14-3-3τ): 3.48 fold
- Phosphorylation-induced fluorescence fold-change; P5/Rose Bengal (1:5), plate reader - bottom read (14-3-3τ): 8 fold
- Phosphorylation-induced fluorescence fold-change; P5/Rose Bengal (1:5), plate reader - top read (14-3-3τ): 30 fold
- Phosphorylation-induced fluorescence fold-change; P5/Rose Bengal (1:5), spectrofluorimeter (14-3-3τ): 64 fold
Substance: phosphorylated P5 peptide AcDap(Pyr)RTGRRFS(PO3 2-)YP-amide

From US20080318246A1, “Deeply quenched enzyme sensors” (The Albert Einstein College of Medicine of Yeshiva …, priority 2007, published 2008)
